# Experiments:
# [1] = target: T1, human CD3 E&D complex protein (Sino Biological Inc., CT026H0323H) (human, UniProt P07766 23-126; P04234 22-105); test: BLI, antibody on sensor
# T1 construct: bought heterodimer; also called human CD3 protein (CT026H0323H)
# [2] = target: T2, human CD3E&G complex (Sino Biological Inc., CT041-H0305H) (human, UniProt P07766 23-126; P09693 23-116); test: BLI, antibody on sensor
# T2 construct: bought heterodimer; also called human CD3E&G antigen
# T2 sequence (P07766 23-126, chain 1 of 2): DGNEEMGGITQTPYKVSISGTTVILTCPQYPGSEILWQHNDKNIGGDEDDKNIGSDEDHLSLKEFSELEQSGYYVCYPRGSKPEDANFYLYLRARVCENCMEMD
# T2 sequence (P09693 23-116, chain 2 of 2): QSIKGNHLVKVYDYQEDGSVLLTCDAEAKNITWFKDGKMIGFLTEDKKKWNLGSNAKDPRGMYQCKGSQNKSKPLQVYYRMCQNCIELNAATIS
# T1 sequence (P07766 23-126, chain 1 of 2): as the sequence (P07766 23-126, chain 1 of 2) above
# T1 sequence (P04234 22-105, chain 2 of 2): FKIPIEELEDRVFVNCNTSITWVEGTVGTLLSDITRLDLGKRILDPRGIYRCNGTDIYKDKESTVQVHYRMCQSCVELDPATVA
Binder,Kd [1] [nM],koff [1] [s⁻¹],kon [1] [M⁻¹ s⁻¹],Kd [2] [nM],koff [2] [s⁻¹],kon [2] [M⁻¹ s⁻¹],binding result [2]
"hzsp34.91 (antibody, human IgG1, lambda, L234A L235A, V domains shown, CDR mutant of hzsp34.24; IgG1 L234A L235A, lambda) VH: EVQLVESGGGLVQPGGSLKLSCAASGFTFNTYAMNWVRQASGKGLEWVGRIRSKYNNYATYYADSVKDRFTISRDDSKSTLYLQMNSLKTEDTAVYYCARHGNFGGSYVSWFAYWGQGTTVTVSS VL: QAVVTQEPSLTVSPGGTVTLTCRSSTGAVTTSNYANWVQQKPGQAPRGLIGGTNKRAPGVPARFSGSLLGDKAALTLLGAQPEDEAEYYCALWYSNLWVFGQGTKLTVLG",1.88,0.000528,280000,8.53,0.00195,228000,
"hzsp34.99 (antibody, human IgG1, lambda, L234A L235A, V domains shown, CDR mutant of hzsp34.24; IgG1 L234A L235A, lambda) VH: EVQLVESGGGLVQPGGSLKLSCAASGFTFNTYAMNWVRQASGKGLEWVGRIRSKYNNYATYYADSVKDRFTISRDDSKSTLYLQMNSLKTEDTAVYYCARHGNAYQSYVSWFAYWGQGTTVTVSS VL: QAVVTQEPSLTVSPGGTVTLTCRSSTGAVTTSNYANWVQQKPGQAPRGLIGGTNKRAPGVPARFSGSLLGDKAALTLLGAQPEDEAEYYCALWYSNLWVFGQGTKLTVLG",9.63,0.0011,114000,,,,no binding
"hzsp34.102 (antibody, human IgG1, lambda, L234A L235A, V domains shown, CDR mutant of hzsp34.24; IgG1 L234A L235A, lambda) VH: EVQLVESGGGLVQPGGSLKLSCAASGFTFNTYAMNWVRQASGKGLEWVGRIRSKYNNYATYYADSVKDRFTISRDDSKSTLYLQMNSLKTEDTAVYYCARHGNFGQSYVSWFAYWGQGTTVTVSS VL: QAVVTQEPSLTVSPGGTVTLTCGSSTGAVTTSNYANWVQQKPGQAPRGLIGGTNKRAPGVPARFSGSLLGDKAALTLLGAQPEDEAEYYCALWYSNLWVFGQGTKLTVLG",1.69,0.000423,250000,8.52,0.0019,222000,
"hzsp34.101 (antibody, human IgG1, lambda, L234A L235A, V domains shown, CDR mutant of hzsp34.24; IgG1 L234A L235A, lambda) VH: EVQLVESGGGLVQPGGSLKLSCAASGFTFNTYAMNWVRQASGKGLEWVGRIRSKYNNYATYYADSVKDRFTISRDDSKSTLYLQMNSLKTEDTAVYYCARHGNFGQSAASWFAYWGQGTTVTVSS VL: QAVVTQEPSLTVSPGGTVTLTCRSSTGAVTTSNYANWVQQKPGQAPRGLIGGTNKRAPGVPARFSGSLLGDKAALTLLGAQPEDEAEYYCALWYSNLWVFGQGTKLTVLG",3.77,0.00082,217000,4.3,0.000636,148000,
"hzsp34.107 (antibody, human IgG1, lambda, L234A L235A, V domains shown, CDR mutant of hzsp34.24; IgG1 L234A L235A, lambda) VH: EVQLVESGGGLVQPGGSLKLSCAASGFTFNTYAMNWVRQASGKGLEWVGRIRSKYNNYATYYADSVKDRFTISRDDSKSTLYLQMNSLKTEDTAVYYCARHGNFGQSYVSWFAYWGQGTTVTVSS VL: QAVVTQEPSLTVSPGGTVTLTCRSSTGAVTTSNYANWVQQKPGQAPRGLIGGTNKRAPGVPARFSGSLLGDKAALTLLGAQPEDEAEYYCALAYSNLWVFGQGTKLTVLG",8.44,0.00141,167000,59.8,0.00446,74600,
"hzsp34.98 (antibody, human IgG1, lambda, L234A L235A, V domains shown, CDR mutant of hzsp34.24; IgG1 L234A L235A, lambda) VH: EVQLVESGGGLVQPGGSLKLSCAASGFTFNTYAMNWVRQASGKGLEWVGRIRSKYNNYATYYADSVKDRFTISRDDSKSTLYLQMNSLKTEDTAVYYCARHYGFGQSYVSWFAYWGQGTTVTVSS VL: QAVVTQEPSLTVSPGGTVTLTCRSSTGAVTTSNYANWVQQKPGQAPRGLIGGTNKRAPGVPARFSGSLLGDKAALTLLGAQPEDEAEYYCALWYSNLWVFGQGTKLTVLG",9.15,0.00184,201000,,,,no binding
"hzsp34.104 (antibody, human IgG1, lambda, L234A L235A, V domains shown, CDR mutant of hzsp34.24; IgG1 L234A L235A, lambda) VH: EVQLVESGGGLVQPGGSLKLSCAASGFTFNTYAMNWVRQASGKGLEWVGRIRSKYNNYATYYADSVKDRFTISRDDSKSTLYLQMNSLKTEDTAVYYCARHGNFGQSYVSWFAYWGQGTTVTVSS VL: QAVVTQEPSLTVSPGGTVTLTCRSSTGAVTGSNYANWVQQKPGQAPRGLIGGTNKRAPGVPARFSGSLLGDKAALTLLGAQPEDEAEYYCALWYSNLWVFGQGTKLTVLG",1.93,0.000542,281000,8.54,0.00198,231000,
"hzsp34.106 (antibody, human IgG1, lambda, L234A L235A, V domains shown, CDR mutant of hzsp34.24; IgG1 L234A L235A, lambda) VH: EVQLVESGGGLVQPGGSLKLSCAASGFTFNTYAMNWVRQASGKGLEWVGRIRSKYNNYATYYADSVKDRFTISRDDSKSTLYLQMNSLKTEDTAVYYCARHGNFGQSYVSWFAYWGQGTTVTVSS VL: QAVVTQEPSLTVSPGGTVTLTCRSSTGAVTTSGYANWVQQKPGQAPRGLIGGTNKRAPGVPARFSGSLLGDKAALTLLGAQPEDEAEYYCALWYSNLWVFGQGTKLTVLG",1.54,0.000365,236000,10.3,0.00237,230000,

# Stronger by Kd [1], values ahead:
Kd [1] [nM],koff [1] [s⁻¹],kon [1] [M⁻¹ s⁻¹],Kd [2] [nM],koff [2] [s⁻¹],kon [2] [M⁻¹ s⁻¹],binding result [2],Binder
1.34,0.000325,243000,7.57,0.00191,253000,,"hzsp34.103 (antibody, human IgG1, lambda, L234A L235A, V domains shown, CDR mutant of hzsp34.24; IgG1 L234A L235A, lambda) VH: EVQLVESGGGLVQPGGSLKLSCAASGFTFNTYAMNWVRQASGKGLEWVGRIRSKYNNYATYYADSVKDRFTISRDDSKSTLYLQMNSLKTEDTAVYYCARHGNFGQSYVSWFAYWGQGTTVTVSS VL: QAVVTQEPSLTVSPGGTVTLTCRSSTGAVGTSNYANWVQQKPGQAPRGLIGGTNKRAPGVPARFSGSLLGDKAALTLLGAQPEDEAEYYCALWYSNLWVFGQGTKLTVLG"
1.3,0.000307,235000,10.6,0.0021,199000,,"hzsp34.105 (antibody, human IgG1, lambda, L234A L235A, V domains shown, CDR mutant of hzsp34.24; IgG1 L234A L235A, lambda) VH: EVQLVESGGGLVQPGGSLKLSCAASGFTFNTYAMNWVRQASGKGLEWVGRIRSKYNNYATYYADSVKDRFTISRDDSKSTLYLQMNSLKTEDTAVYYCARHGNFGQSYVSWFAYWGQGTTVTVSS VL: QAVVTQEPSLTVSPGGTVTLTCRSSTGAVTTRNYANWVQQKPGQAPRGLIGGTNKRAPGVPARFSGSLLGDKAALTLLGAQPEDEAEYYCALWYSNLWVFGQGTKLTVLG"
1.15,0.000258,225000,9.02,0.0021,233000,,"hzsp34.109 (antibody, human IgG1, lambda, L234A L235A, V domains shown, CDR mutant of hzsp34.24; IgG1 L234A L235A, lambda) VH: EVQLVESGGGLVQPGGSLKLSCAASGFTFNTYAMNWVRQASGKGLEWVGRIRSKYNNYATYYADSVKDRFTISRDDSKSTLYLQMNSLKTEDTAVYYCARHGNFGQSYVSWFAYWGQGTTVTVSS VL: QAVVTQEPSLTVSPGGTVTLTCRSSTGAVTTSNYANWVQQKPGQAPRGLIGGTNKRAPGVPARFSGSLLGDKAALTLLGAQPEDEAEYYCALWYRNLWVFGQGTKLTVLG"
1.13,0.000276,243000,8.33,0.00171,205000,,"hzsp34.100 (antibody, human IgG1, lambda, L234A L235A, V domains shown, CDR mutant of hzsp34.24; IgG1 L234A L235A, lambda) VH: EVQLVESGGGLVQPGGSLKLSCAASGFTFNTYAMNWVRQASGKGLEWVGRIRSKYNNYATYYADSVKDRFTISRDDSKSTLYLQMNSLKTEDTAVYYCARHGNFGGRYVSWFAYWGQGTTVTVSS VL: QAVVTQEPSLTVSPGGTVTLTCRSSTGAVTTSNYANWVQQKPGQAPRGLIGGTNKRAPGVPARFSGSLLGDKAALTLLGAQPEDEAEYYCALWYSNLWVFGQGTKLTVLG"
0.977,0.0002,205000,4.63,0.000821,177000,,"hzsp34.94 (antibody, human IgG1, lambda, L234A L235A, V domains shown, CDR mutant of hzsp34.24; IgG1 L234A L235A, lambda) VH: EVQLVESGGGLVQPGGSLKLSCAASGFTFNTYAMNWVRQASGKGLEWVGRIRSKYNNYATYYADSVKDRFTISRDDSKSTLYLQMNSLKTEDTAVYYCARHGNFGQSYASWFAYWGQGTTVTVSS VL: QAVVTQEPSLTVSPGGTVTLTCRSSTGAVTTSNYANWVQQKPGQAPRGLIGGTNKRAPGVPARFSGSLLGDKAALTLLGAQPEDEAEYYCALWYSNLWVFGQGTKLTVLG"
0.976,0.00026,266000,3.42,0.000836,245000,,"hzsp34.93 (antibody, human IgG1, lambda, L234A L235A, V domains shown, CDR mutant of hzsp34.24; IgG1 L234A L235A, lambda) VH: EVQLVESGGGLVQPGGSLKLSCAASGFTFNTYAMNWVRQASGKGLEWVGRIRSKYNNYATYYADSVKDRFTISRDDSKSTLYLQMNSLKTEDTAVYYCARHGNFGQSAVSWFAYWGQGTTVTVSS VL: QAVVTQEPSLTVSPGGTVTLTCRSSTGAVTTSNYANWVQQKPGQAPRGLIGGTNKRAPGVPARFSGSLLGDKAALTLLGAQPEDEAEYYCALWYSNLWVFGQGTKLTVLG"
0.965,0.0002,207000,7.19,0.00146,203000,,"hzsp34.108 (antibody, human IgG1, lambda, L234A L235A, V domains shown, CDR mutant of hzsp34.24; IgG1 L234A L235A, lambda) VH: EVQLVESGGGLVQPGGSLKLSCAASGFTFNTYAMNWVRQASGKGLEWVGRIRSKYNNYATYYADSVKDRFTISRDDSKSTLYLQMNSLKTEDTAVYYCARHGNFGQSYVSWFAYWGQGTTVTVSS VL: QAVVTQEPSLTVSPGGTVTLTCRSSTGAVTTSNYANWVQQKPGQAPRGLIGGTNKRAPGVPARFSGSLLGDKAALTLLGAQPEDEAEYYCALWASNLWVFGQGTKLTVLG"
0.951,0.0002,210000,8.49,0.00188,222000,,"hzsp34.110 (antibody, human IgG1, lambda, L234A L235A, V domains shown, CDR mutant of hzsp34.24; IgG1 L234A L235A, lambda) VH: EVQLVESGGGLVQPGGSLKLSCAASGFTFNTYAMNWVRQASGKGLEWVGRIRSKYNNYATYYADSVKDRFTISRDDSKSTLYLQMNSLKTEDTAVYYCARHGNFGQSYVSWFAYWGQGTTVTVSS VL: QAVVTQEPSLTVSPGGTVTLTCRSSTGAVTTSNYANWVQQKPGQAPRGLIGGTNKRAPGVPARFSGSLLGDKAALTLLGAQPEDEAEYYCALWYSGLWVFGQGTKLTVLG"
0.772,0.0002,259000,4.82,0.00101,210000,,"hzsp34.92 (antibody, human IgG1, lambda, L234A L235A, V domains shown, CDR mutant of hzsp34.24; IgG1 L234A L235A, lambda) VH: EVQLVESGGGLVQPGGSLKLSCAASGFTFNTYAMNWVRQASGKGLEWVGRIRSKYNNYATYYADSVKDRFTISRDDSKSTLYLQMNSLKTEDTAVYYCARHGNFGQRYVSWFAYWGQGTTVTVSS VL: QAVVTQEPSLTVSPGGTVTLTCRSSTGAVTTSNYANWVQQKPGQAPRGLIGGTNKRAPGVPARFSGSLLGDKAALTLLGAQPEDEAEYYCALWYSNLWVFGQGTKLTVLG"
